Reference: publication PMC2757638

Biological target: recombinant Cse4 (S. cerevisiae) (UniProt P36012)
Test: SEC

- stoichiometry N: 2
Substance: recombinant Cse4 (from UniProt P36012 1-229) (natural protein; other documents disagree on this pair)
